Biological target: T1, soluble FLT-1 (sFLT-1) (Homo sapiens, UniProt P17948-2 27-687, limits assumed)
T1 construct: the whole FLT-1 entry is named
Assay: BIAcore; 50 nM sFLT-1 pre-incubated overnight with 50 µg/ml construct, passed over immobilised mAb 2B2
Experimental: Binding of Domain 4 on sFLT-1 is determined using Biomolecular Interaction Analysis (Biacore). (Fisher R. J. and Fivash, M. (1994) Curr. Opin. Biotech. 5, 389-395).
A monoclonal antibody (2B2) specific to Domains 1 to 3 of sFLT-1, but not Domain 4, was immobilized on the sensor chip at a concentration of 30 μg/ml in 10 mM NaAc, pH 5. 50 μg/ml of the four Domain 4 constructs in 20 mM Tris-HCl, pH 7.4 were individually pre-incubated overnight at 4° C. with 50 nM sFLT-1 in HEPES buffer (O.O1M Hepes,pH 7.4, 0.15M NaCl, 3 mM EDTA, 0.005% polysorbate 20 (v/v)). Thereafter the pre-incubated suspensions were passed across the immobilized monoclonal antibody and binding monitored by mass sensitive detection, measured in response units (RU). […] A further control was also run whereby the four Domain 4 constructs, which have not been pre-incubated with sFLT-1, were passed over the immobilized monoclonal antibody. After each run the sensor chip was regenerated in 10 mM Glycine pH 1.75 buffer ready for the next experiment.

T1 sequence (P17948 other isoform, or with tags, fused parts or gaps limits assumed): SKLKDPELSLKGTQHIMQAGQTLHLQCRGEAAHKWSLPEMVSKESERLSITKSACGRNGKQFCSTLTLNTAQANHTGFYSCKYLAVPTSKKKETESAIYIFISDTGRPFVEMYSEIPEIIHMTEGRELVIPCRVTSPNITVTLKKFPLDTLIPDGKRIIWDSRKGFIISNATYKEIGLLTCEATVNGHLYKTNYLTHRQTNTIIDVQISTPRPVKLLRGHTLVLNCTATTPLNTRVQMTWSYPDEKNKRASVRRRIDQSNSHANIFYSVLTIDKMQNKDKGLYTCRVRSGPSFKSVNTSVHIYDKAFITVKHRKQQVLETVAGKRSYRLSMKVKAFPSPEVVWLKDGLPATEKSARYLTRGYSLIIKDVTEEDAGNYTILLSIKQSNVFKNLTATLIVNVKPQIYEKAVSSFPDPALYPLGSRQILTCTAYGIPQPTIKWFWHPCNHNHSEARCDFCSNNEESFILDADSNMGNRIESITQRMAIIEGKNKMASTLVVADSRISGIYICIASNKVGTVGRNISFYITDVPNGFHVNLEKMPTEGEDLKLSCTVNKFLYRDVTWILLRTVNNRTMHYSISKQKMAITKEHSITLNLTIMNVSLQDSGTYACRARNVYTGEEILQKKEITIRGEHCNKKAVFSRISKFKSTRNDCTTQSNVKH

| % inhibition of sFLT-1 [%] | Binder |
| --- | --- |
| 64.7 | FLT-1 Domain 4 Construct 1 (residues 330-429), His-tagged (receptor, not shown: histidine tag from the E. coli expression vector) DKAFITVKHRKQQVLETVAGKRSYRLSMKVKAFPSPEVVWLKDGLPATEKSARYLTRGYSLIIKDVTEEDAGNYTILLSIKQSNVFKNLTATLIVNVKPQ |
| 73.3 | FLT-1 Domain 4 Construct 2 (residues 330-440), His-tagged (receptor, not shown: histidine tag from the E. coli expression vector) DKAFITVKHRKQQVLETVAGKRSYRLSMKVKAFPSPEVVWLKDGLPATEKSARYLTRGYSLIIKDVTEEDAGNYTILLSIKQSNVFKNLTATLIVNVKPQIYEKAVSSFPD |
| 5.85 | FLT-1 Domain 4 Construct 0 (residues 338-440), His-tagged (receptor, probably a printing error; also called sFLT-1 Dom; 4 (construct 0); His-Tagged Domain 4 (Construct 0); not shown: histidine tag from the E. coli expression vector) HRKQQVLETVAGKRSYRLSMKVKAFPSPEVVWLKDGLPATEKSARYLTRGYSLIIKDVTEEDAGNYTILLSIKQSNVFKNLTATLIVNVKPQIYEKAVSSFPD |

Source: patent publication US20030207391A1 (published 2003)
